Data published in patent publication US20260274936A1.

Key:
[1] = biological target: human neonatal Fc-receptor (FcRn) (human) (UniProt P55899); test: FcRn affinity chromatography, anti-VEGF/ANG-2 KiH antibody
[2] = biological target: human neonatal Fc-receptor (FcRn) (human) (UniProt P55899); test: FcRn affinity chromatography, anti-HER2 antibody
[3] = biological target: human neonatal Fc-receptor (FcRn) (human) (UniProt P55899); test: FcRn affinity chromatography
[4] = biological target: human neonatal Fc-receptor (FcRn) (human) (UniProt P55899); test: FcRn affinity chromatography; the table in the text prints 51.8 min for 'none'

human neonatal Fc-receptor (FcRn) (human), sequence (P55899 24-297 limits assumed, chain 1 of 2): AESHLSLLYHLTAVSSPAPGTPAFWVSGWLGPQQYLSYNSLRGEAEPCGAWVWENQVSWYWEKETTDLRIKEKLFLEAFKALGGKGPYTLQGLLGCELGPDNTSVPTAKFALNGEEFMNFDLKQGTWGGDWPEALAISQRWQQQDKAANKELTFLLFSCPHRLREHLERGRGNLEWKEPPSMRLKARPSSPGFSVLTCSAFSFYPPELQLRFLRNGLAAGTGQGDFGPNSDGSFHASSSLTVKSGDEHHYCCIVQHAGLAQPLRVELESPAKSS
human neonatal Fc-receptor (FcRn) (human), sequence (P61769 21-119 limits assumed, chain 2 of 2, further chain): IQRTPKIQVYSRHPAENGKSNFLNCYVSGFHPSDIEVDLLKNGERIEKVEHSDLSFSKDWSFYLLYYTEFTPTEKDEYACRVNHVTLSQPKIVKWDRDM

Substance	retention time on FcRn affinity column [1]	retention time [2]	other results
bispecific anti-VEGF/ANG-2 antibody (knobs-into-holes), one chain with L251D/L314D/L432D (bispecific antibody)	46.3 min		
anti-HER2 antibody, N434H (symmetrically modified)		52 min	
anti-HER2 antibody, K288E (symmetrically modified)		45.2 min	
molecule with IgG1 Fc-region L234A/L235A/P329G and Y436A (symmetric) (antibody)			FcRn-affinity column retention time [3]: 41.3 min
anti-HER2 antibody, R255D (symmetrically modified)		41.4 min	
anti-HER2 antibody, D98E (symmetrically modified)		46.2 min	
bispecific anti-VEGF/ANG-2 antibody (knobs-into-holes), one chain with H310A (bispecific antibody)	48.4 min		
anti-HER2 antibody, E258H (symmetrically modified)		45.6 min	
anti-HER2 antibody, K290H (symmetrically modified)		46.2 min	
bispecific anti-VEGF/ANG-2 antibody (knobs-into-holes), one chain with H310A/H433A/Y436A (bispecific antibody)	46.7 min		
bispecific anti-VEGF/ANG-2 antibody (knobs-into-holes), one chain with H435A (bispecific antibody)	48.8 min		
anti-HER2 antibody, L309H (symmetrically modified)		45.5 min	
bispecific anti-VEGF/ANG-2 antibody (knobs-into-holes), FcRn affecting mutation: none (bispecific antibody)	51.8 min		RT [4]: 52.8 min
bispecific anti-VEGF/ANG-2 antibody (knobs-into-holes), one chain with M252Y/S254T/T256E (bispecific antibody)	56.2 min		
bispecific anti-VEGF/ANG-2 antibody (knobs-into-holes), one chain with I253A (bispecific antibody)	48.8 min		
